Experimental findings from US5849493 are described below.

For this series, the target named is STF-1 / Pbx complex C2 of Tu-6 nuclear extract (UniProt P52947+P40424). As to the kind of experiment: EMSA. The following applies: off-rate with 1000-fold unlabeled TSEII, room temperature; C2 supershift/block by STF-1 and Pbx antisera. A general note: A gel shift assay detects complexes by their altered migration in electrophoresis.
STF-1 / Pbx complex C2 of Tu-6 nuclear extract, sequence (P52947 whole entry, chain 1 of 2): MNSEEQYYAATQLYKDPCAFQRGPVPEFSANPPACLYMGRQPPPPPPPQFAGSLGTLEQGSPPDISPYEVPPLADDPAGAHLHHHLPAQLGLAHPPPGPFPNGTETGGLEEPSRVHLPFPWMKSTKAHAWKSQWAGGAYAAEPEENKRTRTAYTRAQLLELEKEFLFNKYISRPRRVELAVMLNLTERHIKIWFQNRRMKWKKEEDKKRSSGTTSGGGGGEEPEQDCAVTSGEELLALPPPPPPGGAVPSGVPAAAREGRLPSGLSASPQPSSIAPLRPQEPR
STF-1 / Pbx complex C2 of Tu-6 nuclear extract, sequence (P40424 whole entry, chain 2 of 2): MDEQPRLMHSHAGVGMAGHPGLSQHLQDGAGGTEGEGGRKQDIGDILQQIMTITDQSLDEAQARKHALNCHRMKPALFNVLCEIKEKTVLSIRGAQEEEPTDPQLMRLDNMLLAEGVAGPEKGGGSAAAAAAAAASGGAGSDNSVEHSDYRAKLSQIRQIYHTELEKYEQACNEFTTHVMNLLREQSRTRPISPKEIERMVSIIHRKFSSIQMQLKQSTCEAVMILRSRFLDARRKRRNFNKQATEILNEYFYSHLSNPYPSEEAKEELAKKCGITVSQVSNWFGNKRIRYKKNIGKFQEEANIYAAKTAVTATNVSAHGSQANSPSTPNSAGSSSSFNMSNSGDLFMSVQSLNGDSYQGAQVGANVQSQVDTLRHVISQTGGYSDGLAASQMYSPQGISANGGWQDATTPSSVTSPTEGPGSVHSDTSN

In the case of “GATCTCAGTAATTAATCATGCA / AGTCATTAATTAGTACGTCATG [somatostatin TSEII]”, the koff (min (half-life)) stood at 15.
